# Laboratory results reported in the DeepSol protein solubility set.
# Experiment: soluble on expression in E. coli; label from the status in PepcDB or PDB records
row,Sequence,soluble on expression in E. coli
1,MEAGFKRKVDYLDRPERSEVLSPEDFLQAMPIGKTASILDLGAGTGFLTIPAAKLVDNTVFALDLDAKMLELIESKAKEAGLANVETLEASMDDIPLEANSVDVVLASLVLHEADSLADVLREVSRVVKTGGYFASLEFDTKGTDLKGPPMEIQISAEKLKEELAGFGFEVVKNWQLDEGMYVSIAVKKLEHHHHHH,not soluble
2,MSLSLWWKRAKARMTESVTYYQEPAFEKLLPDPDPTFERPYTLCLSLDDLLIHSEWTREHGWRIAKRPGVDYFIRYLSQYYELVLFTTTPYATGEPVMRKLDPFRLILWPLYREATKFEDGEIVKDLSYLNRDLSKVIIIDTKAKHVRNQPDNAIILDPWKGDKDDKNLVNLIPFLEYIHTMQYSDVRKVIKSFDGKDIPTEGHHHHHH,not soluble
3,MTDALEQSVLALEGTVSVLKDSVESLKCANEPSTNLASTMLQTKRVFRLVPEYDVERSKLDLIEEVEPLVRTLGDKLRKSMGRMQRELDTLQQTYELNDLRLKKNISMDDDDALNSPDMGQEYEGRDADDVVMMASSTNEELEELKKLKEKKKQLENKLEILKQK,soluble
4,MGSDKIHHHHHHMINSYLVQQIKGNFLYKPTLEQEKAVKFLADFLFSRQSDSVFLLKGYAGTGKTSLIGALVKTLDQLQQKCVLLAPTGRAAKVFSHYAQHPAYTIHKKIYRQRNFSNDLDNFSLDDNLHQHTLFIVDEASMIANDGLAGAVFGTGRLLDDLIQYVYAGTGCRLMLIGDTAQLPPVGEEESPALSADKLRGYGMEVYEAQLTEVVRQMHDSGILWNATELRRYISEENFLTLPSVRVEGFPDIRMVSGSELIEVINDCYGQAGMDETIVVCRSNKRANIYNKGIRNTILFREDELNSGDLLMVAKNNYFWTEGCKEIDFIANGDIAVVRRVRRVREAYGFRFADVVLAFPDYDGMELEVKLLLDTLHTETPALPKELNDKLFYSVLEDYADITVKRERMKKMKADPHYNALQVKYAYAVTCHKAQGGQWKRVFLDQGYMTEDMLTPDYFRWLYTAFTRATEILYLVNWPKEQTE,not soluble
5,MGSDKIHHHHHHMESIKQIYRMGHGPSSSHTMGPMRAAQMFLERNRGAVRFNVTLYGSLAATGKGHMTDAAILEVLQPVAKTNITWEPKTFLPFHPNGMLFESYNESGEELDTWTVYSIGGGTLANESFNELRTEQVYDMHTIKEIQAWCEKTGHSYWEYVEQHEGPSIWDYLAEVWEVMQDAVRRGLEAEGILPGGLGIRRKASDYMIRAKGYGSSIKSRGMVYAYALAVSEENACGGKIVTAPTCGSCGVMPAVLYHLKETREFRDSRILRALATAGLFGNVVRTNASVSGAEVGCQGEVGVACAMAAAAASQLFGGTPAQIEYAAEMGLEHHLGLTCDPVCGLVQIPCIERNAFAAARALDANTFSNFSDGKHRVSFDQVVEVMRQTGNDLPSLYKETSEGGLAKNMENSNN,not soluble
6,EGRATHLQGLVVDITERKEAQKMLEIQRELGAKLNTTWNLHAILNMVLDACLQINGIDAGGVYIRDELLDQINLVQSRGISPEFKEKVSRFKADSNEAKQVWAEKPIYSMDFYSDKMAEAARKEGIKAVAVIPLKYSNEIIGSLNFASH,not soluble
7,MKKRYQTLNEHYRQLFGAKMFKVPIDAGFDCPNRDGTVAHGGCTFCTVSGSGDAIVAPDAPIKEQFYKEIDFMHRKWPDVNRYLVYFQNFTNTHDTVDVIRDRYEQAINEPGVVGINIGTRPDCLPDDTIAYLAELSERMHVTVELGLQTTYEETSRLINRAHSYDLYKETVRRLRHYPNINIVSHLINGLPKETHDMMLENVRRCVTDNDIQGIKLHLLHLMTNTRMQRDYHEGRLKLLSQKDYVSIICDQLEIIPKHIVIHRITGDAPRDMLIGPMWSLNKWEVLNAIDKEMERRGSFQGCKVD,not soluble
8,MGSDKIHHHHHHMSRVNELVGTLFTGGRKPDDLYGRVFVVSAFGGITNLLLEHKKTGEPGVYARFADAESDHGWHEALSRVGDEMRKAHEAVLENAGDVAQADAFVSERIEGARNCLIDLQRLCSYGHFRLAEHMLQIRELLSGLGEAHSAYVTALLLQRAGVNARFVDLSGWRDEGDVTLEERISSALNDVDPATEMPIVTGYAQCAEGLMREFDRGYSEVTFSCLAALTGASEAIIHKEFHLSSADPKLVGEGVAQKLGHTNYDVADQMSNMGMEAIHPKAAKTLRQADVPLRVTNAFEPEDPGTLIDDKPADQPAVEMITGLDIIALELFEQDMVGVKGYDAAILEVLTRHDVRIVSKTSNANTITHYLDTSLTVLKRVEKDLAKIYPNADISARLLSMASAIGRDLKGLSVLTRGLQAIADVGLASLGASQGPRNVDVQFIVEREDLKPVISALHKVLVEGRPAKQEKPIKAAA,not soluble
9,MALLQISEPGLTAAPHQRRLAAGIDLGTTNSLVATVRSGKAQTLADEQLADEQLIADEQLIAGEQLIAGQQLIAGQQLINEKQRDLLPSVVHYHPQGIDVGWKARNLAALDPVNTISSVKRMMGRSLADIVQRYPNLPYQFHASENGLPMIQTARGLVNPVQVSAEILKTLAQRAQAALAGELDGVVITVPAYFDDAQRQGTKDAARLAGLHVLRLLNEPTAAAIAYGLDSGQEGVIAVYDLGGGTFDISILRLSRGVFEVLATGGDSALGGDDFDHLLADWLREQAGVATRDDHGIQRQLLDTAIAAKIALSEAETAVVSVAGWQGEVTREQLESLIAPQVKRTLMACRRALKDAGVTADEILEVVMVGGSTRVPLVREQVGQFFGRTPLTSIDPDKVVAIGAAIQADILVGNKPDSDMLLLDVIPLSLGLETMGGLVEKVIPRNTTIPAARAQEFTTFKDGQSAMMIHVLQGERELVKDCRSLARFTLRGLPPLPAGGAHIRVTFQVDADGLLSVTAMEKSTGVEASIQVKPSYGLSDDEIANMIKDSMANAQSDITARKLAEQRVDAARVLESLQGALAEDAALLSEQESAAIAQAVALLQQQMQGSDPQAIEAAIKALDAQTQDFAARRMDASIRRALAGHSVDEV,soluble
10,MKAYVALLHSIVLGDGRRVVMADLKAMAEALGCRAPRTLVATGNLLFEAPEKPLAELEAELEKAFEKTFGRHVDIIVRSAEDWSRLAAGNPFLAESERDPASVHVRVMRLPLEVDMREKLLGYCSRGERVAIVDGDLWVDFAGKASESKLLGALTTKRLGIGTVRNWNTVKGLRGMVAG,not soluble
11,MSLRPYQEKARLFLNGEMSATLFVELGIATSCRKGLKKGFFNQDDFFAYQCDEWGLYGVFDGHGPGGHLVANFVQWHLPNIIHEYMITSEPRVALHRAFVEVNSMLTDASEAQKFDSASSGSTASVVLHRRQERKLFLAHVGDSRVVLARRNHQGRLVADCVTKDHKPDDPVERARIERHGGEVRRPTGHIPHRVFLKGKNYPGLAMSRSIGDSMGHCAGVTSEPDISDIDLLEDRDEVVIMCTDGVWEFMTPDEVVDIVSRYSIYQADEAAQELSREAWKRWLEQDGHSVDDITVQIIHLFPPAEEKHPEGHHHHHH,soluble
12,MRSDKVGSIKDLPSLPAGVKFDPSDKEILMHLEAKVSSDKRKLHPLIDEFIPTLEGENGICYTHPEKLPGVSKDGQVRHFFHRPSKAYTTGTRKRRKVSTDEEGHETRWHKTGKTRPVLSQSGETGFKKILVLYTNYGRQKKPEKTNWVMHQYHLGSSEDEKDGEPVLSKVFYQTQPRQCGSMEPKPKNLVNLNRFSYENIQAGFGYEHGGKSEETTQVIRELVVREGDGSCSFLSFTCDASKGKESFMKNQ,soluble
13,MDVHIDNQVLSGLGTPLLVHLFVPDTVMAELCPNRVPNCEGAWCQTLFSDRTGLTRVCRVFAARGMLPGRPSHRGTFTSVPVYCDEGLPELYNPFHVAALRFYDEGGLVGELQIYYLSLFEGAKRALTDGHLIREASGVQESAAAMQPIPIDPGPPGGAGIEHMPVAAAQVEHPKTYDLKQILLEITQEENRGEQRLGHAGSPALCLGLRLRAGAETKAAAETSVSKHHPALENPSNIRGSAGGEGGGGRAGTGGTVGVGSGALSRVPVSFSKTRRAIRESRALVRGIAHIFSPHALYVVTYPELSAQGRLHRMTAVTHASPATDLAEVSILGAPEREFRFLISVALRISASFREKLAMQAWTAQQEIPVVIPTSYSRIYKNSDLIREAFFTVQTRVSWESCWVKATISNAPKTPDACLWIDSHPLYEEGASAWGKVIDSRPPGGLVGAASQLVALGTDGHCVHLATTSDGQAFLVLPGGFVIKGQLALTPEERGYILARHGIRREQ,not soluble
14,GMQGAGRLMQPRPDSAFVHDVRVTWGDCDPAKIAYTGHLPRFALEAIDAWWSEYHGPGGWYHLELDTNVGTPFVRLEMDFKSPVTPRHILKCHTWPTRLGTKSITFRVDGVQDGVTCFVGAFTCVFTIADQFKSQPAPDHLRALIEPHIPA,soluble
15,MPAPLSIVIPTLQAESSLPRLLEALIEGLPNGLIREVIVSDGGSQDATRAIAEAAGAQVLNGPPSRGGQLRHGCDAARGDWLLVLHADTLPDPGWAGVVADHIAAREDAACFRLAFRARGPGAAWVAGWANLRTRLFGLPYGDQGLLIRRRDYQTAGGYPDQLLMEDVHLVRALSRAPVLLPHRALTGAERYLRSGWLRRGARNLWTLMRYFAGTDPEALARAYRRLEHHHHHH,not soluble
16,DGVGGDPAVALPHRRFEYKYSFKGPHLVQSDGTVPFWAHAGNAIPSSDQIRVAPSLKSQRGSVWTKTKAAFENWEVEVTFRVTGRGRIGADGLAIWYAENQGLEGPVFGSADLWNGVGIFFDSFDNDGKKNNPAIVIIGNNGQIHYDHQNDGASQALASCQRDFRNKPYPVRAKITYYQNTLTVMINNGFTPDKNDYEFCAKVENMIIPAQGHFGISAATGGLADDHDVLSFLTFQLTEPGKEPPTPDKEISEKE,soluble
17,MDVPTAISIERVVKEMKSLEITLHITPTGPSVGFANINGFNFQFIVLPSVLIARADRYLSETKSDPRIYLASNEVNNRTVRGGIFVVDNSAAPIMRAEVDICSAAGLTDSQLHMCLSNSVNDVLDLQHSWAKATAI,not soluble
18,MSLYKIDFSKGLVPAILQDNQTKQVLMLGYMNQEAFDKTIEDGVVCFYSRSKQRLWTKGETSGHTQLVKDIHVDCDNDTILIDVIPNGPTCHTGSQSCFNTEVPFSVQTLAQTVQDSAQSNNEKSYTKYLLTEGIEKITKKYGEEAFEVVIEAIKGDKKAFVSEVADELYHLFVLMHALGVDFSEIEAELARRHHKRNNFKGERQNIEQWEGHHHHHH,soluble
19,MSLSPTKTRRILFLLPYVADLSVGDFSKGLNPVMQDKQIDVMMTTLDFLQNKTAKELINEFDGLIYYALDTEQHLDLLFELSLKEFPVVILDKKIYELPFPTVLSDNFQGGALAASYLIEQGHSKIAYLFGTQTHPQSVRQRYLGYLEALDKAGLTFHTSLDDKSATLDELLSYITKYEVTAFVCENDVVAIQTMNLLRQHGYHIPEDFSIIGFDDIQAAALVDPPLTTIAQDFEQLGKLAGDALVTWLETKDRPSDSKFPVSFIKRQSTKEGHHHHHH,soluble
20,NKDFQWDFSLNWSKSVKKLTEIYGGQKKFGDLKVGDRADAFYGSQWQKSADGELILDENGMPTKDAYKQYLGHLDPNFRMGMQNTFRYKDFTLSVDLDGAYKGVIYSVLSEKLWWGGKHPESVEYRDAQYAVGHPIYVPNGVVVTGGELKRDIDGNVISDTRTYKRNTTAVDWQQWCQNYPYQAYVSSKENAKFANVFDRSYIKLRRVALTYNFTKLLSKQSPVKGLTATVFGNNLAVWKKVPFVDPDYTGDSNDGGANDPTARYIGMGVNIKF,not soluble
21,QGDLLLAQYTRAYGYYNPAYAGMRKEIFITALHNRQWEGMPRSPKSFVVLADAPIRFFDREHGVGVRVVTETRGLFAINELMGQYAFKQKLFGGDLSVALQAGLVNTAFDGTKVELETENDPAIPLTKVSGKAFDIGAGIYYRRKE,not soluble
